What was measured:
Experiment in all cases: cell-based or functional assay
[1] = biological target: HIV-1 Env of isolate APV_6 (HIV-1)
[2] = biological target: HIV-1 Env of isolate MGRM-Chronic-B-004 (HIV-1)
[3] = biological target: HIV-1 Env of isolate 93TH305 (HIV-1)
[4] = biological target: HIV-1 Env of isolate 92 BR 020 (HIV-1)
[5] = biological target: HIV-1 Env of isolate MGRM-Chronic-B-024 (HIV-1)
[6] = biological target: HIV-1 Env of isolate PVO.4 (HIV-1)
[7] = biological target: HIV-1 Env of isolate MGRM-Chronic-B-002 (HIV-1)
[8] = biological target: HIV-1 Env of isolate 93IN905 (HIV-1)
[9] = biological target: HIV-1 Env of isolate APV_13 (HIV-1)
[10] = biological target: HIV-1 Env of isolate TRJ04551.58 (HIV-1)
[11] = biological target: HIV-1 Env of isolate MGRM-Chronic-B-011 (HIV-1)
[12] = biological target: HIV-1 Env of isolate 93MW959 (HIV-1)
[13] = biological target: HIV-1 Env of isolate THR0.18 (HIV-1)
[14] = biological target: HIV-1 Env of isolate MGRM-Chronic-B-018 (HIV-1)
[15] = biological target: HIV-1 Env of isolate JRCSF (HIV-1) (UniProt P20871)
[16] = biological target: HIV-1 Env of isolate MGRM-Chronic-B-001 (HIV-1)
[17] = biological target: HIV-1 Env of isolate MGRM-Chronic-B-012 (HIV-1)
[18] = biological target: HIV-1 Env of isolate APV_17 (HIV-1)
[19] = biological target: HIV-1 Env of isolate TRO.11 (HIV-1)
[20] = biological target: HIV-1 Env of isolate QH0692.42 (HIV-1)
[21] = biological target: HIV-1 Env of isolate SC422661.8 (HIV-1)
[22] = biological target: HIV-1 Env of isolate NL43 (HIV-1)
[23] = biological target: HIV-1 Env of isolate MGRM-Chronic-B-008 (HIV-1)
[24] = biological target: HIV-1 Env of isolate MGRM-Chronic-B-023 (HIV-1)
[25] = biological target: HIV-1 Env of isolate MGRM-Chronic-B-020 (HIV-1)
[26] = biological target: HIV-1 Env of isolate MGRM-Chronic-B-003 (HIV-1)
[27] = biological target: HIV-1 Env of isolate 6535.3 (HIV-1)
[28] = biological target: HIV-1 Env of isolate MGRM-Chronic-B-010 (HIV-1)
[29] = biological target: HIV-1 Env of isolate VLGCB3 (HIV-1)
[30] = biological target: HIV-1 Env of isolate 97ZA012 (HIV-1)
[31] = biological target: HIV-1 Env of isolate MGRM-Chronic-B-017 (HIV-1)
[32] = biological target: HIV-1 Env of isolate SF162 (HIV-1) (UniProt P19550)
[33] = biological target: HIV-1 Env of isolate CAAN.A2 (HIV-1)
[34] = biological target: HIV-1 Env of isolate 98IN022 (HIV-1)
[35] = biological target: HIV-1 Env of isolate JRFL (HIV-1)

Chain of PGT-137 monoclonal antibody (5345_I01) (VH): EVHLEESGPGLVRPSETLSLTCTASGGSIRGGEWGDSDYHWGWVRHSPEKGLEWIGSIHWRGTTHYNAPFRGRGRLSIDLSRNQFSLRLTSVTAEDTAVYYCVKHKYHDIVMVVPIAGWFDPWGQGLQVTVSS
Chain of PGT-137 monoclonal antibody (5345_I01) (VL): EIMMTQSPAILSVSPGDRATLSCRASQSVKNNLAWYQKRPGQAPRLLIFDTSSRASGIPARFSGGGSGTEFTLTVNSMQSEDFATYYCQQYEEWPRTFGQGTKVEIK
Chain of PGT-136 monoclonal antibody (5329_C19; 5366_P21) (VH): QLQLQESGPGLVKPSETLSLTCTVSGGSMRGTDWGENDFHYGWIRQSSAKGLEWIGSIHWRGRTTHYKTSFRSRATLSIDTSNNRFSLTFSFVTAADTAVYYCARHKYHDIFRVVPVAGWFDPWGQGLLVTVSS
Chain of PGT-136 monoclonal antibody (5329_C19; 5366_P21) (VL): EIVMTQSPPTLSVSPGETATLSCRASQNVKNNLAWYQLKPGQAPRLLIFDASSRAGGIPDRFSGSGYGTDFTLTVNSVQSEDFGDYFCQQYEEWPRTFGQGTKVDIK

Substance | neutralization IC50 [1] | neutralization IC50 [2] | neutralization IC50 [3] | neutralization IC50 [4] | neutralization IC50 [5] | neutralization IC50 [6] | neutralization IC50 [7] | neutralization IC50 [8] | neutralization IC50 [9] | neutralization IC50 [10] | neutralization IC50 [11] | neutralization IC50 [12] | neutralization IC50 [13] | neutralization IC50 [14] | neutralization IC50 [15] | neutralization IC50 [16] | neutralization IC50 [17] | neutralization IC50 [18] | neutralization IC50 [19] | neutralization IC50 [20] | also measured
PGT-136 monoclonal antibody (5329_C19; 5366_P21) | > 50 µg/mL | > 50 µg/mL | 20.2 µg/mL | 8.61 µg/mL | > 50 µg/mL | > 50 µg/mL | > 50 µg/mL | 0.011 µg/mL | > 50 µg/mL | > 50 µg/mL | > 50 µg/mL | > 50 µg/mL | > 50 µg/mL | > 50 µg/mL | > 50 µg/mL | > 50 µg/mL | 43.1 µg/mL | > 50 µg/mL | 0.073 µg/mL | > 50 µg/mL | neutralization IC50 [21]: > 50 µg/mL; neutralization IC50 [22]: 27.7 µg/mL; neutralization IC50 [23]: > 50 µg/mL; neutralization IC50 [24]: > 50 µg/mL; neutralization IC50 [25]: > 50 µg/mL; neutralization IC50 [26]: > 50 µg/mL; neutralization IC50 [27]: > 50 µg/mL; neutralization IC50 [28]: > 50 µg/mL; neutralization IC50 [29]: > 50 µg/mL; neutralization IC50 [30]: > 50 µg/mL; neutralization IC50 [31]: > 50 µg/mL; neutralization IC50 [32]: 0.482 µg/mL; neutralization IC50 [33]: > 50 µg/mL; neutralization IC50 [34]: 13.6 µg/mL; neutralization IC50 [35]: > 50 µg/mL
PGT-135 monoclonal antibody (5343_B08; 5344_E16) | > 50 µg/mL | > 50 µg/mL | > 50 µg/mL | 0.073 µg/mL | > 50 µg/mL | > 50 µg/mL | > 50 µg/mL | 0.011 µg/mL | 0.716 µg/mL | > 50 µg/mL | > 50 µg/mL | > 50 µg/mL | > 50 µg/mL | > 50 µg/mL | 0.131 µg/mL | > 50 µg/mL | 0.166 µg/mL | > 50 µg/mL | 0.03 µg/mL | > 50 µg/mL | neutralization IC50 [21]: 21.8 µg/mL; neutralization IC50 [22]: 8.03 µg/mL; neutralization IC50 [23]: > 50 µg/mL; neutralization IC50 [24]: 0.329 µg/mL; neutralization IC50 [25]: 0.057 µg/mL; neutralization IC50 [26]: > 50 µg/mL; neutralization IC50 [27]: > 50 µg/mL; neutralization IC50 [28]: > 50 µg/mL; neutralization IC50 [29]: 0.142 µg/mL; neutralization IC50 [30]: > 50 µg/mL; neutralization IC50 [31]: > 50 µg/mL; neutralization IC50 [32]: 0.023 µg/mL; neutralization IC50 [33]: 5.15 µg/mL; neutralization IC50 [34]: 0.014 µg/mL; neutralization IC50 [35]: > 50 µg/mL
PGT-137 monoclonal antibody (5345_I01) | > 50 µg/mL | > 50 µg/mL | > 50 µg/mL | 7.81 µg/mL | > 50 µg/mL | > 50 µg/mL | > 50 µg/mL | 0.042 µg/mL | > 50 µg/mL | > 50 µg/mL | > 50 µg/mL | > 50 µg/mL | > 50 µg/mL | > 50 µg/mL | > 50 µg/mL | > 50 µg/mL | > 50 µg/mL | > 50 µg/mL | 9.35 µg/mL | > 50 µg/mL | neutralization IC50 [21]: > 50 µg/mL; neutralization IC50 [22]: 17.4 µg/mL; neutralization IC50 [23]: > 50 µg/mL; neutralization IC50 [24]: > 50 µg/mL; neutralization IC50 [25]: 32.9 µg/mL; neutralization IC50 [26]: > 50 µg/mL; neutralization IC50 [27]: > 50 µg/mL; neutralization IC50 [28]: > 50 µg/mL; neutralization IC50 [29]: 3.36 µg/mL; neutralization IC50 [30]: > 50 µg/mL; neutralization IC50 [31]: > 50 µg/mL; neutralization IC50 [32]: 3.41 µg/mL; neutralization IC50 [33]: > 50 µg/mL; neutralization IC50 [34]: 0.408 µg/mL; neutralization IC50 [35]: > 50 µg/mL
PGT-128 monoclonal antibody (5114_A19) | 0.007 µg/mL | 0.009 µg/mL | 0.006 µg/mL | 0.009 µg/mL | > 50 µg/mL | 0.005 µg/mL | 0.036 µg/mL | 0.009 µg/mL | 0.008 µg/mL | 0.019 µg/mL | 0.02 µg/mL | 0.045 µg/mL | > 50 µg/mL | 0.02 µg/mL | 0.003 µg/mL | > 50 µg/mL | 0.026 µg/mL | 0.016 µg/mL | 0.018 µg/mL | 0.029 µg/mL | neutralization IC50 [21]: 1.58 µg/mL; neutralization IC50 [22]: > 50 µg/mL; neutralization IC50 [23]: 0.143 µg/mL; neutralization IC50 [24]: > 50 µg/mL; neutralization IC50 [25]: 0.007 µg/mL; neutralization IC50 [26]: 0.007 µg/mL; neutralization IC50 [27]: 0.011 µg/mL; neutralization IC50 [28]: 0.004 µg/mL; neutralization IC50 [29]: 0.012 µg/mL; neutralization IC50 [30]: 0.019 µg/mL; neutralization IC50 [31]: > 50 µg/mL; neutralization IC50 [32]: 0.007 µg/mL; neutralization IC50 [33]: 1.48 µg/mL; neutralization IC50 [34]: 0.014 µg/mL; neutralization IC50 [35]: 0.007 µg/mL
PGT-130 monoclonal antibody (5147_N06) | > 50 µg/mL | 0.01 µg/mL | 0.021 µg/mL | 1.4 µg/mL | 5.78 µg/mL | 5.17 µg/mL | > 50 µg/mL | 0.02 µg/mL | 0.052 µg/mL | 0.023 µg/mL | 0.153 µg/mL | 8.55 µg/mL | > 50 µg/mL | 31.9 µg/mL | 0.01 µg/mL | > 50 µg/mL | 0.373 µg/mL | 10.7 µg/mL | 0.257 µg/mL | > 50 µg/mL | neutralization IC50 [21]: > 50 µg/mL; neutralization IC50 [22]: > 50 µg/mL; neutralization IC50 [23]: 5.18 µg/mL; neutralization IC50 [24]: > 50 µg/mL; neutralization IC50 [25]: 0.014 µg/mL; neutralization IC50 [26]: > 50 µg/mL; neutralization IC50 [27]: 0.031 µg/mL; neutralization IC50 [28]: 0.006 µg/mL; neutralization IC50 [29]: 4.6 µg/mL; neutralization IC50 [30]: 1.32 µg/mL; neutralization IC50 [31]: > 50 µg/mL; neutralization IC50 [32]: 0.007 µg/mL; neutralization IC50 [33]: > 50 µg/mL; neutralization IC50 [34]: > 50 µg/mL; neutralization IC50 [35]: 0.046 µg/mL
PGT-131 monoclonal antibody (5136_H01) | > 50 µg/mL | 0.04 µg/mL | 0.016 µg/mL | 6.16 µg/mL | > 50 µg/mL | > 50 µg/mL | > 50 µg/mL | 0.177 µg/mL | 0.189 µg/mL | 0.088 µg/mL | 6.47 µg/mL | > 50 µg/mL | > 50 µg/mL | > 50 µg/mL | 0.029 µg/mL | > 50 µg/mL | 15.7 µg/mL | > 50 µg/mL | 1.91 µg/mL | > 50 µg/mL | neutralization IC50 [21]: > 50 µg/mL; neutralization IC50 [22]: > 50 µg/mL; neutralization IC50 [23]: > 50 µg/mL; neutralization IC50 [24]: > 50 µg/mL; neutralization IC50 [25]: 0.053 µg/mL; neutralization IC50 [26]: > 50 µg/mL; neutralization IC50 [27]: 0.056 µg/mL; neutralization IC50 [28]: 0.016 µg/mL; neutralization IC50 [29]: > 50 µg/mL; neutralization IC50 [30]: 1.81 µg/mL; neutralization IC50 [31]: > 50 µg/mL; neutralization IC50 [32]: 0.025 µg/mL; neutralization IC50 [33]: > 50 µg/mL; neutralization IC50 [34]: > 50 µg/mL; neutralization IC50 [35]: 0.454 µg/mL

Reference: US20160264649A1
